Article PMC4993509 (PLoS ONE, 2016)

Biological target: the molecule itself
Assay: SEC-MALS; Superdex 200 HR 10/30 coupled to three-angle light scattering (mini-DAWN EOS) and refractive index detector, flow 0.2 ml/min

B1: C-terminal histidine-tagged SYCP1 CC (coiled-coil domain of human synaptonemal complex protein 1, residues 662-801) (domain or fragment, UniProt Q15431 662-801, looked up)
chain: DTYQKEIEDKKISEENLLEEVEKAKVIADEAVKLQKEIDKRCQHKIAEMVALMEKHKHQYDKIIEERDSELGLYKSKEQEQSSLRASLEIELSNLKAELLSVKKQLEIEREEKEKLKREAKENTATLKEKKDKKTQTFLL
notes: synaptonemal complex protein 1 (SYCP1), human, coiled-coil domain region, residues 662 (D)-801 (L); A selenomethionine-substituted form was also made and crystallised; the final model holds residues 673-767 (chain A) and 673-769 (chain B); also called SYCP CC; wildtype; source: E. coli BL21 (pET24a), purified (Ni-NTA, Superdex 200 gel filtration); not shown: His tag, C-terminal, kept
B1 was tested, and the “stoichiometry N” value was 2.
